One may read the EC50 as the concentration needed to bring the measured effect to its halfway point.

The target in test [1] is T1, CDH17 human full length Flag tagged antigen, transfected into HEK293 cells (human, UniProt Q12864 23-832).
T1 construct: The Flag tag may sit at either end; also called Flag tagged Human CDH17; human CDH17; not shown: Flag tag
T1 sequence: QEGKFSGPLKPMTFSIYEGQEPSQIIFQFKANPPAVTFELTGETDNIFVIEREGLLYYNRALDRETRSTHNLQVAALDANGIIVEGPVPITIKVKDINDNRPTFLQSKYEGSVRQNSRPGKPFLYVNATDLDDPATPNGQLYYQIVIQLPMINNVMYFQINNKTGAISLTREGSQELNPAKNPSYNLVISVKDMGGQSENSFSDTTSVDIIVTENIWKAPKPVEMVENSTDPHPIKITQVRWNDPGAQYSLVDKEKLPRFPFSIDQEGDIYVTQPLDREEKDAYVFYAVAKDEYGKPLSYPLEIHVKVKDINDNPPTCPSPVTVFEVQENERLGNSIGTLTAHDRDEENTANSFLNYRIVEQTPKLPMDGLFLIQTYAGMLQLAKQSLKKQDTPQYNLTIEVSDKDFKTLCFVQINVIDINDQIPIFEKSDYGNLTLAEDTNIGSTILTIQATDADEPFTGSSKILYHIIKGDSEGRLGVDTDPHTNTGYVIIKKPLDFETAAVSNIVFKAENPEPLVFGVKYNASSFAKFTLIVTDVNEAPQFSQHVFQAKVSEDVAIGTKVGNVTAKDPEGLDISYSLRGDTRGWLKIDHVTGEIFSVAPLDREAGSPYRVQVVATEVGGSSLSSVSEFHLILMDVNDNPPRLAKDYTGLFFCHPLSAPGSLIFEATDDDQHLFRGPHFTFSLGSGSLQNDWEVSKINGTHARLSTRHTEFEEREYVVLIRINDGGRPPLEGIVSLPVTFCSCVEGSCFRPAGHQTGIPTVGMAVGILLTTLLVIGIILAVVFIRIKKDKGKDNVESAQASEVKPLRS
The experiment in a line: flow cytometry on HEK293 cells transiently transfected with Flag tagged human CDH17; panel 'CDH17 Human Flag Tag analyzed with CDH17_A4_4K'. On the procedure:
(§1) The humanized monoclonal antibodies, CDH17_A4_{—}4K and CDH17_A4_{—}4R were incubated with cells on ice for 1 hour and then washed twice with cold FACS buffer and re-suspended in 100 ul FACS buffer per well. A secondary antibody was added at 1 ug/ml along with goat anti-mouse H+L PE (Southern Biotech) for Anti-flag and mouse isotype control and goat anti-human H+L PE (Southern Biotech) for human isotype control. The plate was then incubated for 1 hour after which was washed three times with FACS buffer and re-suspended 150 ul FACS buffer per well. 50 ul of 4% paraformaldehyde was then added to fix the cells before storing the plate overnight at 4 degrees C. The sample were then run on Guava EasyCyte Flow Cytometer HT plus and the data analyzed using the Guava Cytosoft software suite.
In general terms: A flow cytometer gives signals particle by particle.

In test [2] the target is T1, CDH17 human full length Flag tagged …. The experiment in a line: flow cytometry on HEK293 cells transiently transfected with Flag tagged human CDH17; panel 'CDH17 Human Flag Tag analyzed with CDH17_A4_4R'. On the procedure:
as §1

Test [3] has as its target T2, human Cadherin-17 (CDH17), cell-surface, endogenous on human cancer cells (human, UniProt Q12864 23-832).
T2 construct: Endogenous CDH17 on LoVo, LS174T and SNU-1 cells and in human tumor tissue sections; also called liver-intestine cadherin; LI-cadherin
T2 sequence: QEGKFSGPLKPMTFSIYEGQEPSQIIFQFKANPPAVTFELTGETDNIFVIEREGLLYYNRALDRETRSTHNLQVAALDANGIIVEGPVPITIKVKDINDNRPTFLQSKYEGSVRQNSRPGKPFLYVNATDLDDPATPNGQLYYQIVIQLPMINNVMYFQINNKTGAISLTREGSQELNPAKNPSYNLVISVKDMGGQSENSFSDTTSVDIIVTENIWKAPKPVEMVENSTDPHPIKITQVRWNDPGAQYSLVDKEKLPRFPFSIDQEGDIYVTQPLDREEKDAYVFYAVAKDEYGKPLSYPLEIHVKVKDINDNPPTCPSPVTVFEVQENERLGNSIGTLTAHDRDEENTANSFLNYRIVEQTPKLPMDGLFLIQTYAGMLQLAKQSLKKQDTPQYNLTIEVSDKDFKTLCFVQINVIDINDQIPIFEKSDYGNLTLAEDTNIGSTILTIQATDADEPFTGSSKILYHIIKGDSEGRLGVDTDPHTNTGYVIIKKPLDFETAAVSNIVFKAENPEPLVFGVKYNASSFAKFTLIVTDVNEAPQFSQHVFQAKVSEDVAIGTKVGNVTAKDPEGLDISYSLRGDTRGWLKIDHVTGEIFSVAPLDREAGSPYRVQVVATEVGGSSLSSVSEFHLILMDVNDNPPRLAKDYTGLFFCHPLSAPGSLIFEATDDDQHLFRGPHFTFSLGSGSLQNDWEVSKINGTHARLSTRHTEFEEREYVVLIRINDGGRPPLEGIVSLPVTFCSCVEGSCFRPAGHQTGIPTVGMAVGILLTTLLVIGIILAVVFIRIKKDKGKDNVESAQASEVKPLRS
Nature of the test: flow cytometry on LoVo cells, antibody titration.

B1: humanized CDH17_A4-4K monoclonal antibody (antibody, V domains shown)
VH: QVQLVQSGAEVKKPGASVKVSCKASGYTLTDHTIHWMRQAPGQRLEWIGYIYPRDGITGYNEKFKGKATLTADTSASTAYMELSSLRSEDTAVYYCARWGYSYRNYAYYYDYWGQGTLVTVSS
VL: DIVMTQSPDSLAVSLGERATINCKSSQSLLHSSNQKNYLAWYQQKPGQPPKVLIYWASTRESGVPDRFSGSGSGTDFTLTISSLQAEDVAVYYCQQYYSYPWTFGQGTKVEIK
notes: It was detected with an anti-human IgG secondary in the HumZAP assay
B1 displayed an EC50 in test [1] of 0.14 nM.

B2: humanized CDH17_A4-4R monoclonal antibody (antibody, V domains shown)
VH: QVQLVQSGAEVKKPGASVKVSCKASGYTLTDHTIHWMRQAPGQRLEWIGYIYPRDGITGYNERFRGKATLTADTSASTAYMELSSLRSEDTAVYYCARWGYSYRNYAYYYDYWGQGTLVTVSS
VL: DIVMTQSPDSLAVSLGERATINCRSSQSLLHSSNQRNYLAWYQQKPGQPPKVLIYWASTRESGVPDRFSGSGSGTDFTLTISSLQAEDVAVYYCQQYYSYPWTFGQGTKVEIK
notes: as for B1
As for B2, the response in test [2] was half-maximal at 0.13 nM (EC50).

B3: CDH17_A4 monoclonal antibody (Fab, V domains shown)
VH: EVQLQQSVAELVKPGASVKMSCKVSGYTLTDHTIHWMKQRPEQGLEWIGYIYPRDGITGYNEKFKGKATLTADTSSSTAYMQLNSLTSEDSAVYFCARWGYSYRNYAYYYDYWGQGTTLTVSS
VL: DIVMSQSPSSLAVSVGEKVTMSCKSSQSLLHSSNQKNYLAWYQQKPGQSPKVLIYWASTRESGVPDRFTGSGSGTDFTLTITSVKSEDLAVYYCQQYYSYPWTFGGGTRLEIK
notes: also called CHD17_A4
In the case of B3, the binding result in test [3] is reported as “binds”.

Source of the values: US20130259878A1 (OXFORD BIOTHERAPEUTICS, published 2013).
